Experimental data from publication PMC6131548 (2018).

Target: T1, Tsr2-N (recombinant, binding assays) (S. cerevisiae (yeast), UniProt Q06672 1-152)
T1 chain: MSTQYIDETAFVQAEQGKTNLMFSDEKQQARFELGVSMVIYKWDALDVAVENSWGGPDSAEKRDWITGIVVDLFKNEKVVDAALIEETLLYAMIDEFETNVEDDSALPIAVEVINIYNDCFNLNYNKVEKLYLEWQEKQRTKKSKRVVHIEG
Test: ITC

- Kd: 720 nM
B1: ESS2 peptide (peptide)
peptide: RPRFNRENKVSPADAAKKAL
